Source: publication PMC11417369, “DNA sequence and chromatin differentiate sequence-specific transcription factor binding in the human malaria parasite Plasmodium falciparum”
Changes are numbered by the printed parent chain.

T1: SIP2 D1 (Plasmodium falciparum, UniProt C6KSN9 177-235)
T1 sequence: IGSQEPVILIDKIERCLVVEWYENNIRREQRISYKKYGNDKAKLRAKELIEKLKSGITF

B1: GTGCAC_site10679 (dsDNA)
DNA 1: AGCATATTATTTTAGGTGCACTTGAAATGTGTTAAC
DNA 2: GTTAACACATTTCAAGTGCACCTAAAATAATATGCT
B2: GTGCAC_negctrl_site708 (dsDNA)
DNA 1: TTCTATTCAAATGCAAAATTATTAAATAAAAAATAA
DNA 2: TTATTTTTTATTTAATAATTTTGCATTTGAATAGAA
B3: GTGCAC_site9660 (dsDNA)
DNA 1: CTTTTTTTTTTGGGGGTGCATGCAAGACATATATTT
DNA 2: AAATATATGTCTTGCATGCACCCCCAAAAAAAAAAG
B4: GTGCAC_negctrl_site313 (dsDNA)
DNA 1: GATATAATTATATTATGGTGTTTTTGATAGATATTT
DNA 2: AAATATCTATCAAAAACACCATAATATAATTATATC
B5: GTGCAC_negctrl_site95 (dsDNA)
DNA 1: GCAGTCAAAAAGGAAAATATAAAAAAAGTATATGTG
DNA 2: CACATATACTTTTTTTATATTTTCCTTTTTGACTGC
B6: GTGCAC_site10453 (dsDNA)
DNA 1: TATAAGTAGATAAGGGTGCACAATATAAATATATAG
DNA 2: CTATATATTTATATTGTGCACCCTTATCTACTTATA
B7: GTGCAC_site10495 (dsDNA)
DNA 1: ATATATATAATATAGGTGCACTACTTATTTAAAAAA
DNA 2: TTTTTTAAATAAGTAGTGCACCTATATTATATATAT
B8: GTGCAC_site10047 (dsDNA)
DNA 1: TATAATTTTTACTGGGTGCACTCGATATTTTAAATA
DNA 2: TATTTAAAATATCGAGTGCACCCAGTAAAAATTATA
B9: GTGCAC_site10597 (dsDNA)
DNA 1: TGAACTCAACAAAGGGTGCATAACAAAAATAGACGT
DNA 2: ACGTCTATTTTTGTTATGCACCCTTTGTTGAGTTCA
B10: GTGCAC_site9513 (dsDNA)
DNA 1: TATATATGTATATGTGTGCACCTTATTTCTTTTATT
DNA 2: AATAAAAGAAATAAGGTGCACACATATACATATATA
B11: GTGCAC_negctrl_site64 (dsDNA)
DNA 1: TGCAAATTTAACAAAAAAAAAAAAAAAAAAAAAAAA
DNA 2: TTTTTTTTTTTTTTTTTTTTTTTTGTTAAATTTGCA
B12: GTGCAC_negctrl_site315 (dsDNA)
DNA 1: ATATACTATTAACCACATATGTGTGTTAATTTATAT
DNA 2: ATATAAATTAACACACATATGTGGTTAATAGTATAT
B13: GTGCAC_site9733 (dsDNA)
DNA 1: TAAAAATTAAAAAGGGTGCAAAAAAAAAAAAAAAAA
DNA 2: TTTTTTTTTTTTTTTTTGCACCCTTTTTAATTTTTA
B14: GTGCAC_negctrl_site663 (dsDNA)
DNA 1: ATAAAAATAAATAAATTATATAAATGTAATATGAAA
DNA 2: TTTCATATTACATTTATATAATTTATTTATTTTTAT
B15: GTGCAC_site9950 (dsDNA)
DNA 1: AAAAAAAAAAAAATGGTGCAACTTTGTTAAAGGAAA
DNA 2: TTTCCTTTAACAAAGTTGCACCATTTTTTTTTTTTT
B16: GTGCAC_site10263 (dsDNA)
DNA 1: TTTAATTATTAAATGGTGCACTTGAAATATAAAAAT
DNA 2: ATTTTTATATTTCAAGTGCACCATTTAATAATTAAA
B17: GTGCAC_site9899 (dsDNA)
DNA 1: CTTGTGCTTTATAGGGTGCACATTTTGTTTTGGTAA
DNA 2: TTACCAAAACAAAATGTGCACCCTATAAAGCACAAG
B18: GTGCAC_site9600 (dsDNA)
DNA 1: AACCTTACACAAGGGGTGCAATATTATTTCGATAAA
DNA 2: TTTATCGAAATAATATTGCACCCCTTGTGTAAGGTT
B19: GTGCAC_negctrl_site248 (dsDNA)
DNA 1: ACTACGTGTCAAAAATATTAATTACAAATGAATAAA
DNA 2: TTTATTCATTTGTAATTAATATTTTTGACACGTAGT
B20: GTGCAC_site10229 (dsDNA)
DNA 1: CACATTAATTTTTGGGTGCACTTGGGAAATTTTGGT
DNA 2: ACCAAAATTTCCCAAGTGCACCCAAAAATTAATGTG
B21: GTGCAC_site10641 (dsDNA)
DNA 1: ATATAATAACAAAAGGTGCGCATTAAGACAAAAAAA
DNA 2: TTTTTTTGTCTTAATGCGCACCTTTTGTTATTATAT
B22: GTGCAC_negctrl_site392 (dsDNA)
DNA 1: TTTATTATTATATTATTTTAATTTTTCTTTAGTACA
DNA 2: TGTACTAAAGAAAAATTAAAATAATATAATAATAAA
B23: GTGCAC_site9881 (dsDNA)
DNA 1: TCCGCATGTACATGGGTGCACATAACACCCATTTAA
DNA 2: TTAAATGGGTGTTATGTGCACCCATGTACATGCGGA
B24: GTGCAC_site10767 (dsDNA)
DNA 1: TGTTTTATTTAGAAGGTGCACATTAATATTAAATAA
DNA 2: TTATTTAATATTAATGTGCACCTTCTAAATAAAACA
B25: GTGCAC_site10223 (dsDNA)
DNA 1: TTAATTATGGACAGGGTGCACATGAATAATAATACC
DNA 2: GGTATTATTATTCATGTGCACCCTGTCCATAATTAA
B26: GTGCAC_site9895 (dsDNA)
DNA 1: ATTGAATTCCAACTGGTGCACCAGTAAGATTGAAAA
DNA 2: TTTTCAATCTTACTGGTGCACCAGTTGGAATTCAAT
B27: GTGCAC_site9617 (dsDNA)
DNA 1: TTTTTTTTTTTTTGTGTGCACCTTATTTTTTTGTAT
DNA 2: ATACAAAAAAATAAGGTGCACACAAAAAAAAAAAAA
B28: GTGCAC_site9855 (dsDNA)
DNA 1: TTTATTTTCCAAAGGGTGCACATAGTTAAAACGATA
DNA 2: TATCGTTTTAACTATGTGCACCCTTTGGAAAATAAA
B29: GTGCAC_site10157 (dsDNA)
DNA 1: B28 DNA 1 with A28G
DNA 2: B28 DNA 2 with T9C
B30: GTGCAC_site10337 (dsDNA)
DNA 1: GGGATATTTTAAAGGGTGCATATTATTAAAATAATG
DNA 2: CATTATTTTAATAATATGCACCCTTTAAAATATCCC
B31: GTGCAC_site10574 (dsDNA)
DNA 1: AATTAATGGCTAAAGGTGCACAATATATATATTACA
DNA 2: TGTAATATATATATTGTGCACCTTTAGCCATTAATT
B32: GTGCAC_site9943 (dsDNA)
DNA 1: B31 DNA 1 with C10T, T26C
DNA 2: B31 DNA 2 with A11G, G27A
B33: GTGCAC_site10530 (dsDNA)
DNA 1: ATTAATAATCGAAAGGTGCACTTTGATTTGATAACA
DNA 2: TGTTATCAAATCAAAGTGCACCTTTCGATTATTAAT
B34: GTGCAC_site9987 (dsDNA)
DNA 1: ATATCTTATAATACGGTGCACTTGACATGAACAACT
DNA 2: AGTTGTTCATGTCAAGTGCACCGTATTATAAGATAT
B35: GTGCAC_site9928 (dsDNA)
DNA 1: TTAACCGGTTTATGGGTGCACATTCTTCTTAAATAA
DNA 2: TTATTTAAGAAGAATGTGCACCCATAAACCGGTTAA
B36: GTGCAC_site10264 (dsDNA)
DNA 1: TTATTTATTTATTGGGTGCACTTGATTTAAATATGC
DNA 2: GCATATTTAAATCAAGTGCACCCAATAAATAAATAA
B37: GTGCAC_site9401 (dsDNA)
DNA 1: AAAAAAAAAAAAAAGGTGCATACTTTGAATTAATAT
DNA 2: ATATTAATTCAAAGTATGCACCTTTTTTTTTTTTTT
B38: GTGCAC_site10010 (dsDNA)
DNA 1: AACCATTGGGAAAGGGTGCACATATATATATATATA
DNA 2: TATATATATATATATGTGCACCCTTTCCCAATGGTT
B39: GTGCAC_negctrl_site404 (dsDNA)
DNA 1: AAAAAAAAAAAGAAGGAAACATTTGACCAAAAATAT
DNA 2: ATATTTTTGGTCAAATGTTTCCTTCTTTTTTTTTTT
B40: GTGCAC_negctrl_site11 (dsDNA)
DNA 1: TCTTATAACAAAAAAAAATAAAAAATAAAACTATAT
DNA 2: ATATAGTTTTATTTTTTATTTTTTTTTGTTATAAGA
B41: GTGCAC_negctrl_site359 (dsDNA)
DNA 1: ATATAAAAAAGGGAGGTAAATGAATGTGAAACCCAA
DNA 2: TTGGGTTTCACATTCATTTACCTCCCTTTTTTATAT
B42: GTGCAC_site9503 (dsDNA)
DNA 1: ATCTATTTGTAAAGGGTGCGCATATCAATAAAAAAT
DNA 2: ATTTTTTATTGATATGCGCACCCTTTACAAATAGAT
B43: GTGCAC_site10477 (dsDNA)
DNA 1: AAATATTTCTGCAAGGTGCACTTTATAAATCTTTGA
DNA 2: TCAAAGATTTATAAAGTGCACCTTGCAGAAATATTT
B44: GTGCAC_site10518 (dsDNA)
DNA 1: ATATATTTCAAAGGGGTGCAGGCATATTTAAGCAAA
DNA 2: TTTGCTTAAATATGCCTGCACCCCTTTGAAATATAT

Target: T1, SIP2 D1
Assay: gcPBM; about 25 ug protein; PBS, 1% milk, 0.2 mg/ml BSA, salmon testes DNA, 0.03% Triton X-100
Conditions: tags: N-terminal GST (pGEX-4T-1), kept; label: surface-attached array probe

| Binder | binding signal |
| --- | --- |
| B1 | 11.5 ln median PBM intensity, better of two orientations |
| B2 | 6.9 ln median PBM intensity, better of two orientations |
| B3 | 11.5 ln median PBM intensity, better of two orientations |
| B4 | 6.92 ln median PBM intensity, better of two orientations |
| B5 | 6.87 ln median PBM intensity, better of two orientations |
| B6 | 12.1 ln median PBM intensity, better of two orientations |
| B7 | 11.7 ln median PBM intensity, better of two orientations |
| B8 | 12.2 ln median PBM intensity, better of two orientations |
| B9 | 11.6 ln median PBM intensity, better of two orientations |
| B10 | 11.7 ln median PBM intensity, better of two orientations |
| B11 | 6.92 ln median PBM intensity, better of two orientations |
| B12 | 6.87 ln median PBM intensity, better of two orientations |
| B13 | 11.6 ln median PBM intensity, better of two orientations |
| B14 | 6.92 ln median PBM intensity, better of two orientations |
| B15 | 11.6 ln median PBM intensity, better of two orientations |
| B16 | 11.8 ln median PBM intensity, better of two orientations |
| B17 | 11.9 ln median PBM intensity, better of two orientations |
| B18 | 11.5 ln median PBM intensity, better of two orientations |
| B19 | 6.92 ln median PBM intensity, better of two orientations |
| B20 | 11.6 ln median PBM intensity, better of two orientations |
| B21 | 11.5 ln median PBM intensity, better of two orientations |
| B22 | 6.89 ln median PBM intensity, better of two orientations |

| Binder | binding signal |
| --- | --- |
| B23 | 11.6 ln median PBM intensity, better of two orientations |
| B24 | 11.8 ln median PBM intensity, better of two orientations |
| B25 | 11.9 ln median PBM intensity, better of two orientations |
| B26 | 11.6 ln median PBM intensity, better of two orientations |
| B27 | 11.8 ln median PBM intensity, better of two orientations |
| B28 | 11.9 ln median PBM intensity, better of two orientations |
| B29 | 11.9 ln median PBM intensity, better of two orientations |
| B30 | 11.8 ln median PBM intensity, better of two orientations |
| B31 | 11.7 ln median PBM intensity, better of two orientations |
| B32 | 11.6 ln median PBM intensity, better of two orientations |
| B33 | 12.2 ln median PBM intensity, better of two orientations |
| B34 | 11.9 ln median PBM intensity, better of two orientations |
| B35 | 11.9 ln median PBM intensity, better of two orientations |
| B36 | 11.8 ln median PBM intensity, better of two orientations |
| B37 | 11.7 ln median PBM intensity, better of two orientations |
| B38 | 12.2 ln median PBM intensity, better of two orientations |
| B39 | 6.91 ln median PBM intensity, better of two orientations |
| B40 | 6.87 ln median PBM intensity, better of two orientations |
| B41 | 6.92 ln median PBM intensity, better of two orientations |
| B42 | 11.6 ln median PBM intensity, better of two orientations |
| B43 | 12.1 ln median PBM intensity, better of two orientations |
| B44 | 11.6 ln median PBM intensity, better of two orientations |
